Laboratory results as given in patent publication US20150024955.

How the values were obtained:
[1] = biological target: mixture of recombinant PP1 isoforms (α, β, and γ; Upstate)
[2] = biological target: HDAC7-GFP fusion protein
HDAC7-GFP fusion protein, sequence (Q8C2B3 whole entry, the tested form may be a part): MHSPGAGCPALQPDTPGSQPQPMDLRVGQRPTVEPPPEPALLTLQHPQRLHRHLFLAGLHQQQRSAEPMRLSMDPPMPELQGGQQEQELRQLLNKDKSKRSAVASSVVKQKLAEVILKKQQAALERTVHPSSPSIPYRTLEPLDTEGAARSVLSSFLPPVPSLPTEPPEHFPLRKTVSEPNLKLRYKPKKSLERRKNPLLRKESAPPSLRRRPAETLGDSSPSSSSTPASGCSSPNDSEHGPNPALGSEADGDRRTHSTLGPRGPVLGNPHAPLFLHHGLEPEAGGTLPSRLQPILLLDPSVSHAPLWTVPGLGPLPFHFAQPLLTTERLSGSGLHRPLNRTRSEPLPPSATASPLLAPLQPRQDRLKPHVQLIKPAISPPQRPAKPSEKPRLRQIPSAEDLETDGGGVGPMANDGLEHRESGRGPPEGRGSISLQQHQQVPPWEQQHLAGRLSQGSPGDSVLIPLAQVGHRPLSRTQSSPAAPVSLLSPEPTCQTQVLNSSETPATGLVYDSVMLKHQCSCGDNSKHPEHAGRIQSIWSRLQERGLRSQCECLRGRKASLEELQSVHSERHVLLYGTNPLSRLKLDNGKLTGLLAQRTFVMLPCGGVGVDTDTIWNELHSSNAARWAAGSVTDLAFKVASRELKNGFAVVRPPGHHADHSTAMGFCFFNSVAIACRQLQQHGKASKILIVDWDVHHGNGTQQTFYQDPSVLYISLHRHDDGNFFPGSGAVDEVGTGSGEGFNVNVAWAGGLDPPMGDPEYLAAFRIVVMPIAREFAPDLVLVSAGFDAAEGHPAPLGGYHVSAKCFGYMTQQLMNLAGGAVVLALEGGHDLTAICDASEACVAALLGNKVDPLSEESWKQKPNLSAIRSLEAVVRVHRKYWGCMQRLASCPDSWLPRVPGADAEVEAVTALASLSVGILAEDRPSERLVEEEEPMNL

Protein | in vitro dephosphorylation assay (30 minutes at 30° C.), Western blot with phospho HDAC7 antibodies [1] | nuclear exclusion of HDAC7-GFP after siRNA knockdown of myosin phosphatase subunits (immunofluorescence microscopy) [2]
FLAG-tagged human HDAC7, phosphorylated (from DO11.10-HDAC7-Flag cells treated with PMA or anti-CD3) (protein) MDLRVGQRPPVEPPPEPTLLALQRPQRLHHHLFLAGLQQQRSVEPMRLSMDTPMPELQVGPQEQELRQLLHKDKSKRSAVASSVVKQKLAEVILKKQQAALERTVHPNSPGIPYRTLEPLETEGATRSMLSSFLPPVPSLPSDPPEHFPLRKTVSEPNLKLRYKPKKSLERRKNPLLRKESAPPSLRRRPAETLGDSSPSSSSTPASGCSSPNDSEHGPNPILGSEADSDRRTHPTLGPRGPILGSPHTPLFLPHGLEPEAGGTLPSRLQPILLLDPSGSHAPLLTVPGLGPLPFHFAQSLMTTERLSGSGLHWPLSRTRSEPLPPSATAPPPPGPMQPRLEQLKTHVQVIKRSAKPSEKPRLRQIPSAEDLETDGGGPGQVVDDGLEHRELGHGQPEARGPAPLQQHPQVLLWEQQRLAGRLPRGSTGDTVLLPLAQGGHRPLSRAQSSPAAPASLSAPEPASQARVLSSSETPARTLPFTTGLIYDSVMLKHQCSCGDNSRHPEHAGRIQSIWSRLQERGLRSQCECLRGRKASLEELQSVHSERHVLLYGTNPLSRLKLDNGKLAGLLAQRMFVMLPCGGVGVDTDTIWNELHSSNAARWAAGSVTDLAFKVASRELKNGFAVVRPPGHHADHSTAMGFCFFNSVAIACRQLQQQSKASKILIVDWDVHHGNGTQQTFYQDPSVLYISLHRHDDGNFFPGSGAVDEVGAGSGEGFNVNVAWAGGLDPPMGDPEYLAAFRIVVMPIAREFSPDLVLVSAGFDAAEGHPAPLGGYHVSAKCFGYMTQQLMNLAGGAVVLALEGGHDLTAICDASEACVAALLGNRVDPLSEEGWKQKPNLNAIRSLEAVIRVHSKYWGCMQRLASCPDSWVPRVPGADKEEVEAVTALASLSVGILAEDRPSEQLVEEEEPMNL | recombinant PP1 treatment totally abolished the reactivity to the different phospho HDAC7 antibodies | 
myosin phosphatase (complex of PP1β and MYPT1) (protein) chain 1: ADGELNVDSLITRLLEVRGCRPGKIVQMTEAEVRGLCIKSREIFLSQPILLELEAPLKICGDIHGQYTDLLRLFEYGGFPPEANYLFLGDYVDRGKQSLETICLLLAYKIKYPENFFLLRGNHECASINRIYGFYDECKRRFNIKLWKTFTDCFNCLPIAAIVDEKIFCCHGGLSPDLQSMEQIRRIMRPTDVPDTGLLCDLLWSDPDKDVQGWGENDRGVSFTFGADVVSKFLNRHDLDLICRAHQVVEDGYEFFAKRQLVTLFSAPNYCGEFDNAGGMMSVDETLMCSFQILKPSEKKAKYQYGGLNSGRPVTPPRTANPPKKR chain 2: MKMADAKQKRNEQLKRWIGSETDLEPPVVKRQKTKVKFDDGAVFLAACSSGDTDEVLKLLHRGADINYANVDGLTALHQACIDDNVDMVKFLVENGANINQPDNEGWIPLHAAASCGYLDIAEFLIGQGAHVGAVNSEGDTPLDIAEEEAMEELLQNEVNRQGVDIEAARKEEERVMLRDARQWLNSGHISDVRHAKSGGTALHVAAAKGYTEVLKLLIQAGYDVNIKDYDGWTPLHAAAHWGKEEACRILVDNLCDMETVNKVGQTAFDVADEDILGYLEELQKKQTLLHSEKRDKKSPLIESTANMENNQPQKAFKNKETLIIEPEKNASRIESLEHEKADEEEEGKKDESSCSSEEDEEDDSESEAETDKTKPMASVSNAHTSSTQAAPAAVTAPTLSSNQGTPTSPVKKFPISTTKISPKEEERKDESPASWRLGLRKTGSYGALAEISASKEAQKEKDTAGVMRSASSPRLSSSLDNKEKEKDNKGTRLAYVTPTIPRRLASTSDIEEKENRESSSLRTSSSYTRRKWEDDLKKNSSINEGSTYHRSCSFGRRQDDLISCSVPSTTSTPTVTSAAGLQRSLPSSTSTAAKTPPGSSSAGTQSSTSNRLWAEDSTEKEKDSAPTAVTIPVAPTVVNAAAPSTTTLTTTTAGTVSEVRERRRSYLTPVRDEESESQRKARSRQARQSRRSTQGVTLTDLQEAEKTIGRSRSTRTREQENEEKEKEEKEKQDKEKQEEKKESEASREDEYKQKYSRTYDETYTRYRPVSTSSSSAPSSSSLSTLGSTLYASSQLNRPNSLVGITSAYSRGLAKENEREGEKKEEEKEGEDKSQPKSIRERRRPREKRRSTGVSFWTQDSDENEQERQSDTEDGSSKRETQTDSVSRYDSSSTSSSDRYDSLLGRSASYSYLEDRKPYSSRLEKDDSTDFKKLYEQILAENEKLKAQLHDTNMELTDLKLQLEKATQRQERFADRSQLEMEKRERRALERRISEMEEELKMLPDLKADNQRLKDENGALIRVISKLSK |  | HDAC7 nuclear re-entry was significantly delayed at later time points
